Data taken from the supplement of paper PMC10567573.

B1: FUNDC2 (parent)
chain: YIKVDWQRVEKDMKKAKEQLKIRK
B2: KCNA1 (parent)
chain: LKASMRELGLLIFFLFIGVILFSS

Variants of: B1
Experiment: protein stability index of a GFP-peptide fusion (GPS, HEK-293T) (PSI 1-6); higher = more stable
Details: c terminus: a fixed tail appended
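Also: lentivirally expressed fusions sorted by FACS into six bins by GFP to DsRed ratio, PSI derived from sequencing read proportions per bin multiplied by bin number.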

Protein stability index, by site and new letter:
Q7: I 2.7 | K 1.95 | E 1.92 | G 2.9 | P 1.37 | T 1.73 | L 2.01 | V 2.33 | H 1.45 | Y 1.69 | A 1.79 | C 2.41 | D 1.49 | N 2.47 | F 2.84 | S 1.76 | R 1.43
A16: Q 3 | P 2.13 | D 1.78 | S 1.75 | Y 1.98 | E 1.43 | M 1.85 | W 1.94 | I 2.06 | K 1.83 | V 1.38 | R 2.08 | G 1.89 | C 2.08 | F 2.16 | T 1.89 | H 2.4 | L 1.95
W6: P 3.15 | S 3.31 | A 3.39 | Y 2.24 | V 3.49 | E 2.91 | C 2.64 | K 3.09 | Q 2.71 | G 2.81 | H 2.83 | D 3.77 | F 2.63 | T 2.97 | M 2.46 | L 2.28 | N 3.23 | R 2.97 | I 2.47
R8: Y 1.62 | M 2.35 | V 1.74 | T 2.21 | F 1.99 | Q 1.68 | I 1.82 | A 2.35 | L 2.21 | K 2.01 | P 2.48 | C 1.04 | S 1.96 | H 2.11 | E 2.15 | G 1.71 | N 1.79 | D 2.05
K3: S 1.88 | V 2.79 | W 2.09 | Y 3.14 | G 2.54 | L 1.67 | C 2.86 | D 4.58 | H 1.39 | I 1.73 | M 1.91 | E 2.4 | P 2.07 | F 1.98 | R 2.18 | N 2.22 | A 2.13
K15: F 1.42 | S 1.65 | Y 2.14 | C 2.35 | H 1.44 | R 1.92 | W 1.94 | T 2.11 | L 2.19 | N 1.88 | M 1.79 | E 1.55 | V 2.39 | A 1.78 | D 2.05 | G 1.89 | P 1.72 | I 2.01 | Q 2.5
E10: S 2.33 | L 1.65 | W 1.56 | P 1.77 | V 1.52 | N 1.62 | K 1.73 | G 1.09 | Y 1.79 | F 1.78 | R 1.27 | Q 1.36 | D 1.85 | A 1.92 | M 1.73 | H 2.58 | T 2.36
D12: G 2.68 | E 1.82 | M 2.97 | V 3.62 | T 1.74 | N 1.47 | P 1.45 | R 1.91 | H 1.03 | Q 2.63 | L 2.8 | Y 3.43
I2: S 3.37 | E 4.42 | M 4.03 | L 2.26 | Y 3 | V 1.83 | K 3.35 | A 3.35 | T 2.37 | D 3.58 | G 3.6 | R 2.53 | N 3.6 | C 1.93 | W 2.96 | P 2.54 | Q 1.75 | F 2.74
V4: E 1.81 | C 1.56 | I 2.53 | Y 2.4 | Q 1.83 | S 2.25 | K 1.92 | L 2.23 | F 1.73 | D 1.99 | R 2.74 | A 3.41 | N 2.13 | T 1.71 | G 2.36 | M 1.45 | H 2.52
D5: R 1.78 | N 2.19 | H 1.64 | Y 3.3 | M 2.46 | E 1.52 | Q 1.62 | G 2.43 | T 2.29 | C 1.03 | L 2.48 | A 3.55 | K 2.1 | P 2.21 | S 1.47 | W 3.34 | F 2.33
K17: D 1.67 | F 2.62 | C 2.19 | A 1.64 | E 2.15
K14: D 1.65 | L 2.19 | N 1.61 | M 1.9 | R 2.12 | Q 1.72 | E 1.42 | T 1.92 | H 1.14 | W 2.1 | I 1.67 | A 1.6 | P 1.86 | F 1.51 | V 1.92 | S 2.03 | C 1.83 | Y 4.38
M13: I 1.89 | L 1.63 | P 1.17 | E 1.87 | G 2.32 | D 1.83 | T 1.4 | H 1.82 | F 1.79 | Y 2.14 | N 2.3 | C 1.73 | R 2.29 | A 1.24 | K 1.92 | V 1.95 | W 2.29 | Q 1.82 | S 2.21
Y1: K 3.09 | Q 3.49 | D 4.17 | A 2.98 | L 3.22 | F 1.85 | N 3.7 | G 4.26 | M 2.63 | V 2.53 | I 2.21 | H 3.34 | R 3.6 | W 1.99 | T 3.07 | S 3.11 | E 4.15 | P 3.81
V9: K 2.45 | P 1.81 | E 2.56 | S 1.91 | I 2.28 | A 1.5 | Q 2.16 | T 1.66 | G 1.95 | H 1.61 | R 1.73 | W 1.99 | C 1.94 | D 2.62 | M 1.26 | N 2.37 | F 1.54 | L 2.04 | Y 1.67
K11: S 1.97 | N 2.59 | Q 2.12 | H 1.95 | A 2.37 | L 1.46 | I 1.78 | G 1.2 | V 2.16 | E 2.01 | T 2.56 | C 1.53 | R 2.09 | P 2.5 | Y 1.55 | F 1.64 | D 2.06 | M 1.57

Variants of: B2
Experiment: as above
Details: c terminus: a fixed tail appended

Protein stability index: each site, then its substitutions
S24: C 1.19 | N 2.83 | K 3.45 | H 2 | F 2.02 | P 3.1 | I 1.23 | Q 2.11 | L 1.47 | W 1.84 | Y 2.06 | M 2.42 | T 2 | A 2.04 | E 2.02 | D 2 | V 1.85
F22: M 2.98 | K 2.81 | L 2.25 | V 1.8 | P 2.64 | W 2.75 | Q 3.69 | Y 1.93 | N 3.37 | I 2.43 | S 2.95 | T 3.72 | R 2.24
S23: A 2.19 | N 2.41 | P 2.42 | F 2.15 | H 2.15 | R 3.62 | Q 2.13 | I 1.85 | K 3.15 | W 2.38 | Y 2.2 | T 1.44 | G 2.03 | C 1.67 | M 2.35 | D 2.75 | L 2.19 | V 2
